Assay results: the supplement of paper PMC9233669
This sample holds only a part of the variants without activity.

Key:
biotinyl-Met-oxazolone = experiment: self-aminoacylation, catalytic enhancement (BMO) (fold over background); higher = more active; k-Seq, kA / k0A0; sequences stand for … in GGGAAUGGAUCCACAUCUACGAAUUC…UUCACUGCAGACUUGACGAAGCUG
Procedure, shortened: (§1)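 Mutagenized RNA pools with a 21-nt variable region (0.43 μM) reacted with each biotinyl-aminoacyl-oxazolone at 2–1250 μM. Reactions ran in 50 μL HEPES/NaCl/KCl/MgCl2/CaCl2 buffer with 5% acetonitrile, pH 6.9–7.0, for 90 minutes at room temperature. Streptavidin-captured RNA was quantified by triplicate qPCR and Illumina sequencing, and per-sequence fraction reacted was fit to a pseudo-first-order model with 1000 bootstraps. Catalytic enhancement is median kA divided by the uncatalyzed rate, the low-activity peak of a bimodal Gaussian fit.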

biotinyl-Val-oxazolone = experiment: self-aminoacylation, catalytic enhancement (BVO) (fold over background); higher = more active; k-Seq, kA / k0A0; sequences stand for … in GGGAAUGGAUCCACAUCUACGAAUUC…UUCACUGCAGACUUGACGAAGCUG
Procedure, shortened: as §1

biotinyl-Phe-oxazolone = experiment: self-aminoacylation, catalytic enhancement (BFO) (fold over background); higher = more active; k-Seq, kA / k0A0; sequences stand for … in GGGAAUGGAUCCACAUCUACGAAUUC…UUCACUGCAGACUUGACGAAGCUG
Procedure, shortened: as §1

biotinyl-Leu-oxazolone = experiment: self-aminoacylation, catalytic enhancement (BLO) (fold over background); higher = more active; k-Seq, kA / k0A0; sequences stand for … in GGGAAUGGAUCCACAUCUACGAAUUC…UUCACUGCAGACUUGACGAAGCUG
Procedure, shortened: as §1

biotinyl-Ile-oxazolone = experiment: self-aminoacylation, catalytic enhancement (BIO) (fold over background); higher = more active; k-Seq, kA / k0A0; sequences stand for … in GGGAAUGGAUCCACAUCUACGAAUUC…UUCACUGCAGACUUGACGAAGCUG
Procedure, shortened: as §1

biotinyl-Trp-oxazolone = experiment: self-aminoacylation, catalytic enhancement (BWO) (fold over background); higher = more active; k-Seq, kA / k0A0; sequences stand for … in GGGAAUGGAUCCACAUCUACGAAUUC…UUCACUGCAGACUUGACGAAGCUG
Procedure, shortened: as §1

| Sequence | self-aminoacylation (biotinyl-Met-oxazolone) | self-aminoacylation (biotinyl-Val-oxazolone) | self-aminoacylation (biotinyl-Phe-oxazolone) | self-aminoacylation (biotinyl-Leu-oxazolone) | self-aminoacylation (biotinyl-Ile-oxazolone) | self-aminoacylation (biotinyl-Trp-oxazolone) |
| --- | --- | --- | --- | --- | --- | --- |
| AUUCACCUAAGUAAUCGGGUG [Fam2.2 aminoacylation ribozyme variant] | 4.37 | 2.15 | 24.9 | 5.7 | 2.81 | 4.33 |
| AUUCACCUAAGUCAUCAGGUG [Fam2.2 aminoacylation ribozyme variant] | 3.1 | 2.07 | 11 | 3.53 | 2.23 | 3.31 |
| AUUCACCUAAGUCAUCGCGUG [Fam2.2 aminoacylation ribozyme variant] | 13.4 | 7.56 | 110 | 17.7 | 6.77 | 15.7 |
| AUUCACCUAAGUCAUCGGGUC [Fam2.2 aminoacylation ribozyme variant] | 1.42 | 1.53 | 1.31 | 1.13 | 1.01 | 1.78 |
| AUUCACCUAAGUGAUCGGGUG [Fam2.2 aminoacylation ribozyme variant] | 2.25 | 1.77 | 9.9 | 2.94 | 1.65 | 2 |
| AUUCACCUAAGUUAUCGGGUG [Fam2.2 aminoacylation ribozyme variant] | 6.15 | 3.96 | 51 | 8.59 | 3.83 | 5.61 |
| AUUCACCUACGUAAUCGGGUG [Fam2.2 aminoacylation ribozyme variant] | 6.45 | 3.4 | 45.9 | 9.03 | 3.09 | 5.66 |
| AUUCACCUACGUCAUCGGGUA [Fam2.2 aminoacylation ribozyme variant] | 1.94 | 1.61 | 0.967 | 1.96 | 1.58 | 2.18 |
| AUUCACCUACGUUAUCGGGUG [Fam2.2 aminoacylation ribozyme variant] | 7.55 | 4.17 | 63.3 | 9.22 | 3.98 | 6.51 |
| AUUCACCUAGAUCAUCGAGUG [Fam2.2 aminoacylation ribozyme variant] | 1.33 | 1.32 | 1.68 | 1.64 | 1.14 | 0.729 |
| AUUCACCUAGAUCAUCGGCUG [Fam2.2 aminoacylation ribozyme variant] | 1.56 | 1.89 | 0.62 | 1.81 | 1.69 | 1.63 |
| AUUCACCUAGAUCAUCGGGCG [Fam2.2 aminoacylation ribozyme variant] | 3.12 | 1.93 | 8.81 | 2.33 | 1.96 | 1.28 |
| AUUCACCUAGAUCAUCGGGUG [Fam2.2 aminoacylation ribozyme variant] | 2.8 | 2.22 | 14.9 | 3.47 | 2.1 | 2.95 |
| AUUCACCUAGAUCAUCGGGUU [Fam2.2 aminoacylation ribozyme variant] | 0.967 | 1.11 | 0.554 | 1.17 | 1.01 | 1.26 |
| AUUCACCUAGAUCAUCGUGUG [Fam2.2 aminoacylation ribozyme variant] | 1.36 | 0.999 | 1.49 | 1.38 | 0.956 | 1.06 |
| AUUCACCUAGAUCUUCGGGUG [Fam2.2 aminoacylation ribozyme variant] | 3.09 | 2.54 | 12.3 | 3.75 | 2.18 | 2.8 |
| AUUCACCUAGAUGAUCGGGUG [Fam2.2 aminoacylation ribozyme variant] | 2.77 | 2.62 | 13.7 | 2.71 | 2.32 | 3.34 |
| AUUCACCUAGAUUAUCGGGUG [Fam2.2 aminoacylation ribozyme variant] | 7.21 | 4.18 | 53.7 | 9 | 4.48 | 6.65 |
| AUUCACCUAGCCCAUCGGGUG [Fam2.2 aminoacylation ribozyme variant] | 2.92 | 2.58 | 13.6 | 3.35 | 2 | 3.11 |
| AUUCACCUAGCGCAUCGGGUG [Fam2.2 aminoacylation ribozyme variant] | 1.72 | 1.68 | 10 | 2.96 | 1.55 | 2.14 |
| AUUCACCUAGCUCAGCGGGUG [Fam2.2 aminoacylation ribozyme variant] | 2.68 | 2.09 | 10.6 | 3.49 | 2.08 | 2.83 |
| AUUCACCUAGCUCAUCGCGUG [Fam2.2 aminoacylation ribozyme variant] | 4.26 | 3.28 | 34.7 | 6.1 | 2.98 | 5.18 |
| AUUCACCUAGCUCAUCGGCUG [Fam2.2 aminoacylation ribozyme variant] | 1.92 | 1.96 | 3.23 | 2.05 | 1.67 | 1.25 |
| AUUCACCUAGCUCAUCUGGUG [Fam2.2 aminoacylation ribozyme variant] | 1.3 | 1.05 | 5.43 | 1.52 | 1.17 | 0.967 |
| AUUCACCUAGGACACCGGGUG [Fam2.2 aminoacylation ribozyme variant] | 3.51 | 3.63 | 15.6 | 3.94 | 3.57 | 3.19 |
